From patent US20040147436A1

Legend:
[1] = target: Some FVIII derivatives; assay: cell-based or functional assay
[2] = test system: T1, dBN(64-53) FVIII derivative
T1 sequence: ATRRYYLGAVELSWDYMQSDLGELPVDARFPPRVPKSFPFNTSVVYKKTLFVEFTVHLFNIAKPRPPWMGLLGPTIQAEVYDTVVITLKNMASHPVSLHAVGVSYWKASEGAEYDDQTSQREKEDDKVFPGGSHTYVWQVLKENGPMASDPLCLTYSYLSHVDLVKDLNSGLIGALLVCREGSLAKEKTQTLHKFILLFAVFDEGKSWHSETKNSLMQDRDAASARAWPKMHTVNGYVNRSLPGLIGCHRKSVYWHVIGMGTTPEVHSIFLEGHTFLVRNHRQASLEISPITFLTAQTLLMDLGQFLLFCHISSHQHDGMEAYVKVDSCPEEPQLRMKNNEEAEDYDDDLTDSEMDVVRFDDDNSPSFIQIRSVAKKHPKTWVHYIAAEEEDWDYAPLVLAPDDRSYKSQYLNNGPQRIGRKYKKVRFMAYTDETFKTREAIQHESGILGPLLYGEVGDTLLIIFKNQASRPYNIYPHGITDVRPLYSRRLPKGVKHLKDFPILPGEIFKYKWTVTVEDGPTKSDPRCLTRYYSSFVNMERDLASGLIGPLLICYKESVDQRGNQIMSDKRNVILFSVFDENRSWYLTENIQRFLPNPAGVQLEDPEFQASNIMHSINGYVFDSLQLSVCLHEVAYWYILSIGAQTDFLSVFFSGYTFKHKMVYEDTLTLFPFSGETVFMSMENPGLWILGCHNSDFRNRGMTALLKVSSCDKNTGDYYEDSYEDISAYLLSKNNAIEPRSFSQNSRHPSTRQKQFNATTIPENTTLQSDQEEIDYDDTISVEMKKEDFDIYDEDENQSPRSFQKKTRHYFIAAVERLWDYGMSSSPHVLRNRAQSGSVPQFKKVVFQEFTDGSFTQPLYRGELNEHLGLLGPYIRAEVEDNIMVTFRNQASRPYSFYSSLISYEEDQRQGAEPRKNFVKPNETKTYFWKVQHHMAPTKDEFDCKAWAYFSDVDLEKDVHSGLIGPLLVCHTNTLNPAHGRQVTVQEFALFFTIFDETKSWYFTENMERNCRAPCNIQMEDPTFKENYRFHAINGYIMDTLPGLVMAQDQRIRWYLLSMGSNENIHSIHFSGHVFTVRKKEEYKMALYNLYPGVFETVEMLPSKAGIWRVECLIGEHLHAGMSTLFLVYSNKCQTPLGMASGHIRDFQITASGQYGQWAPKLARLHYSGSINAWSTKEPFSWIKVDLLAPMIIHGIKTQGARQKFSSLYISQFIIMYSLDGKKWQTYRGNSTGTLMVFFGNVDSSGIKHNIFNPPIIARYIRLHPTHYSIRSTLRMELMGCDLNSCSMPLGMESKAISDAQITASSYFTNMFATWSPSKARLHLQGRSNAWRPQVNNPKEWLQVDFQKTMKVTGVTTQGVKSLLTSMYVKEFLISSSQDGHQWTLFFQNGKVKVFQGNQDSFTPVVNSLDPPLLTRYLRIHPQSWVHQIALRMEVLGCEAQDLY

[3] = test system: T2, dBN(64-56) FVIII derivative
T2 sequence: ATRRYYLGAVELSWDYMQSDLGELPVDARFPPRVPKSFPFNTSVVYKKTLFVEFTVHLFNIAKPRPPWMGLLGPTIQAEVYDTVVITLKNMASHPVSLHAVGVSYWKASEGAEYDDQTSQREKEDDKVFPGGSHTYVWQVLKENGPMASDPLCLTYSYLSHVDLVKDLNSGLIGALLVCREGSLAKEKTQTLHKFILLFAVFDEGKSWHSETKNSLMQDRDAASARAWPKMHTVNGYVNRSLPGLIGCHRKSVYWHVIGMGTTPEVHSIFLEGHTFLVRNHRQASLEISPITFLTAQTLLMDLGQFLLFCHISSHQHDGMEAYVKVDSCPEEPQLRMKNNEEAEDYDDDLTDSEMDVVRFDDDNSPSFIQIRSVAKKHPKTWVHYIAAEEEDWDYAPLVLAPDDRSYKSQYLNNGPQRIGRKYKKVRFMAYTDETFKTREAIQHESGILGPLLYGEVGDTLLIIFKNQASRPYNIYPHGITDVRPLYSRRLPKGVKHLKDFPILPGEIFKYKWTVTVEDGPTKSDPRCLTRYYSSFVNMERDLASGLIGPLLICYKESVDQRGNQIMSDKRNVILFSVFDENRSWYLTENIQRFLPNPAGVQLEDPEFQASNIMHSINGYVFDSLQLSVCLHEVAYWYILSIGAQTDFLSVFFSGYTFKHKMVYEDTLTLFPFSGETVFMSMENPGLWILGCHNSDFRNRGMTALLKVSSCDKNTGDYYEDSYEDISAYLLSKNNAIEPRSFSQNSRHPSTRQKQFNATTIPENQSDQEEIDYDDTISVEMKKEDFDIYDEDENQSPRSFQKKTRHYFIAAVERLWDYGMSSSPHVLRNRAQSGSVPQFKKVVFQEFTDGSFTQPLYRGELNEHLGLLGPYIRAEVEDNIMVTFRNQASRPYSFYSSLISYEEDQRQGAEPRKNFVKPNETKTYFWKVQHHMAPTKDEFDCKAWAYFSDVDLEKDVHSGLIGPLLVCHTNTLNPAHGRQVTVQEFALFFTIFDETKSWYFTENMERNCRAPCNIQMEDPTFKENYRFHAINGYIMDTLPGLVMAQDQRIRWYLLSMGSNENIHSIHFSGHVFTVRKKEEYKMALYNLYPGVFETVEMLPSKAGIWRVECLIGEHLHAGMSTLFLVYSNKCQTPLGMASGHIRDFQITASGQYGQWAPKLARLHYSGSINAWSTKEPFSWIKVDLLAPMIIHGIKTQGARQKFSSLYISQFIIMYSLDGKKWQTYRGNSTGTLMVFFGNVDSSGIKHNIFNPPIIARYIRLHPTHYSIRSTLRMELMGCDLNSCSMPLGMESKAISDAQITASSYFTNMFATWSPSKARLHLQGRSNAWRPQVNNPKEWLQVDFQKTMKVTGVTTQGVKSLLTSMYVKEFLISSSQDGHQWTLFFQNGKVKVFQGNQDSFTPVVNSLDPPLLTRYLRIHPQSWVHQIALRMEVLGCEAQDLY

[4] = test system: FVIII derivatives

| Substance | activation by thrombin, measured in a classical coagulation test (APTT) [1] [fold] | activation by thrombin, measured in a classical coagulation test (APTT) [2] | activation by thrombin, measured in a classical coagulation test (APTT) [3] | thrombin cleavage of 35S-labeled immunoprecipitated protein, SDS-PAGE [4] |
| --- | --- | --- | --- | --- |
| thrombin (enzyme) | 7 | – | – | – |
| thrombin | – | are activated in the same manner as rh FVIII | are activated in the same manner as rh FVIII | Analysis of the radiolabeled protein after thrombin digestion indicated a normal appearance of the 73 kD, and 50 and 40 kd fragments |
